Laboratory results: patent publication US20100112546A1

Experiments:
[1] = molecular target: PSA-alpha-1-antichymotrypsin (PSA-ACT) complex (UniProt P07288); assay: silicon nanowire FET (p-type); mixture of f-PSA 0.85, PSA-ACT 3200 and free Ab1 1 x 10^7 pg/ml (f-PSA blocked by Ab1)
[2] = molecular target: PSA-alpha-1-antichymotrypsin (PSA-ACT) complex (UniProt P07288); assay: silicon nanowire FET (p-type), antibody on the wire; PSA-ACT 320 pg/ml
[3] = molecular target: PSA-alpha-1-antichymotrypsin (PSA-ACT) complex (UniProt P07288); assay: silicon nanowire FET (p-type), antibody on the wire; PSA-ACT 0.32 pg/ml
[4] = molecular target: prostate specific antigen (PSA) (UniProt P07288); assay: silicon nanowire FET (p-type), antibody on the wire; f-PSA 850 pg/ml
[5] = molecular target: prostate specific antigen (PSA) (UniProt P07288); assay: silicon nanowire FET (p-type), antibody on the wire; f-PSA 0.085 pg/ml
[6] = molecular target: PSA-alpha-1-antichymotrypsin (PSA-ACT) complex (UniProt P07288); assay: silicon nanowire FET (p-type), antibody on the wire; PSA-ACT 3.2 pg/ml
[7] = molecular target: PSA-alpha-1-antichymotrypsin (PSA-ACT) complex (UniProt P07288); assay: silicon nanowire FET (p-type), antibody on the wire; PSA-ACT 3200 pg/ml
[8] = molecular target: PSA-alpha-1-antichymotrypsin (PSA-ACT) complex (UniProt P07288); assay: silicon nanowire FET (p-type); mixture of f-PSA 850, PSA-ACT 3200 and free Ab1 1 x 10^7 pg/ml (f-PSA blocked by Ab1)
[9] = molecular target: prostate specific antigen (PSA) (UniProt P07288); assay: silicon nanowire FET (p-type), antibody on the wire; f-PSA 0.85 pg/ml
[10] = molecular target: PSA-alpha-1-antichymotrypsin (PSA-ACT) complex (UniProt P07288); assay: silicon nanowire FET (p-type); mixture of f-PSA 850, PSA-ACT 0.32 and free Ab1 1 x 10^7 pg/ml (f-PSA blocked by Ab1)
[11] = molecular target: prostate specific antigen (PSA) (UniProt P07288); assay: silicon nanowire FET (p-type), antibody on the wire; f-PSA 1700 pg/ml
[12] = molecular target: PSA-alpha-1-antichymotrypsin (PSA-ACT) complex (UniProt P07288); assay: silicon nanowire FET (p-type); mixture of f-PSA 8.5, PSA-ACT 320 and free Ab1 1 x 10^7 pg/ml (f-PSA blocked by Ab1)
[13] = molecular target: prostate specific antigen (PSA) (UniProt P07288); assay: silicon nanowire FET (p-type), antibody on the wire; f-PSA 8.5 pg/ml

Conductance Change, nS [1]: 138 nS
Conductance Change, nS [2]: 124 nS
Conductance Change, nS [3]: 19 nS
Conductance Change, nS [4]: 132 nS
Conductance Change, nS [5]: 10 nS
Conductance Change, nS [6]: 67 nS
Conductance Change, nS [7]: 143 nS
Conductance Change, nS [8]: 140 nS
Conductance Change, nS [9]: 50 nS
Conductance Change, nS [10]: 15 nS
Conductance Change, nS [11]: 154 nS
Conductance Change, nS [12]: 118 nS
Conductance Change, nS [13]: 81 nS
Substance: monoclonal antibody anti-ACT-PSA (AbII, clone PSA1, abcam Inc.)
